Source: paper PMC7360590, “Structural basis of SALM3 dimerization and synaptic adhesion complex formation with PTPσ” (Scientific Reports, 2020)

T1: PTPσ-Fc fusion protein, B0V2N1
T1 chain: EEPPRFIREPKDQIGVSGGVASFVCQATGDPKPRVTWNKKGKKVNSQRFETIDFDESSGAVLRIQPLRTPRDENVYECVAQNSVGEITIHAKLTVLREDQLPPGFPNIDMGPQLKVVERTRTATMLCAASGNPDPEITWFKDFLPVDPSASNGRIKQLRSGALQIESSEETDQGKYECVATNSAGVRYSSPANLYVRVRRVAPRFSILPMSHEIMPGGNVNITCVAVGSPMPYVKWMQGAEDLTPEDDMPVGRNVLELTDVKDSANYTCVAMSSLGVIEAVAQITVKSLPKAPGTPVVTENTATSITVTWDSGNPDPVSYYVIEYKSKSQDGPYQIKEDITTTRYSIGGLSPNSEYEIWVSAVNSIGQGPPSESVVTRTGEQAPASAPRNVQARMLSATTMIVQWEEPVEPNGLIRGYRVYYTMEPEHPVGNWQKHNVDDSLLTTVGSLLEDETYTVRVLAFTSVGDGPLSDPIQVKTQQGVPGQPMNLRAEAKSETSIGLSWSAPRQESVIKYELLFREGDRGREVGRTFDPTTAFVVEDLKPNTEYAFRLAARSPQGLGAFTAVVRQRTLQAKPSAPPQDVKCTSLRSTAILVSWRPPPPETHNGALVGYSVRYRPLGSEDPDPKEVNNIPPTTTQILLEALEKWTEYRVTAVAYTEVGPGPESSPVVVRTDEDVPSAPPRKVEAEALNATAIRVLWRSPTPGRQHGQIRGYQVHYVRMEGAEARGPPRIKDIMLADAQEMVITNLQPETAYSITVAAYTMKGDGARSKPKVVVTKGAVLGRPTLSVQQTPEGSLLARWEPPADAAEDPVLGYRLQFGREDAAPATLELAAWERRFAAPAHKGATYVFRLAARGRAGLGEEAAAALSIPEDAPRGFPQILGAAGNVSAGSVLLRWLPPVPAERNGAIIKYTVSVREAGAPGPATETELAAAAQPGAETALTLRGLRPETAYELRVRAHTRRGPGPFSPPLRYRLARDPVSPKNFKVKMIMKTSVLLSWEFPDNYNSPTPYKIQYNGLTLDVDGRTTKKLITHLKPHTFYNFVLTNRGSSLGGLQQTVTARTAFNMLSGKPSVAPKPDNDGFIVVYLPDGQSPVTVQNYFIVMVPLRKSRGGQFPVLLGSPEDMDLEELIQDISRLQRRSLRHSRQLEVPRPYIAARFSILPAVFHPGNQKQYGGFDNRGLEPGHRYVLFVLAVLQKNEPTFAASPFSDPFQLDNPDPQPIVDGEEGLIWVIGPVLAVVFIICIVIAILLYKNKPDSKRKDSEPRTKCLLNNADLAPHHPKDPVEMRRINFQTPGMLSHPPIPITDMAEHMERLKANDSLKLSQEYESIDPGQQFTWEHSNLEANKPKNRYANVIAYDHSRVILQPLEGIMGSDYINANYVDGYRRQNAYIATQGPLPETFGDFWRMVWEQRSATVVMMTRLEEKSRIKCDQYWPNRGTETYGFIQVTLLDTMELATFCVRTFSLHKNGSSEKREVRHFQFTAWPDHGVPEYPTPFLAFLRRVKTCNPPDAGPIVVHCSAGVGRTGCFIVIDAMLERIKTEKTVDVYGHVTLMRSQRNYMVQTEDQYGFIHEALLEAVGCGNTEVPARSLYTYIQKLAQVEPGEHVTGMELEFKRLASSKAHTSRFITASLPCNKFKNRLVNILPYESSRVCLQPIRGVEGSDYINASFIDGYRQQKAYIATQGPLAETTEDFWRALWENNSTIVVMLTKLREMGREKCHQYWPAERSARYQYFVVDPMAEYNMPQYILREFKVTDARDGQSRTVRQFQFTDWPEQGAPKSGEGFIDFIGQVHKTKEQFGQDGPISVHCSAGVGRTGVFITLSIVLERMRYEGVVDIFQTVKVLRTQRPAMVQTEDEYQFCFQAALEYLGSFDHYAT


Columns and labels:
[1] = target: purified SALM3 Thr354Arg-Glu359Ala mutant protein (mouse); experiment: not stated; oligomeric state in solution of purified SALM3 double mutants against the wild type (Supplementary Fig. S8)
[2] = target: purified SALM3 Leu282Arg-Arg285Ala mutant protein (mouse); experiment: as above
[3] = target: the molecule itself; experiment: SEC-MALS; SEC–MALLS; Superdex 75 10/300, 0.5 ml/min, 20 mM Tris pH 7.4, 150 mM NaCl; 100 µL injected at 1.5 mg/ml (conditions told for the LRR construct)
[4] = target: T1, PTPσ-Fc fusion protein, B0V2N1; experiment: in-cell western cell binding assay; details: chain shown with the change; 150 nM PTPσ-Fc; SALM3 expressed on the surface of HEK293T cells; parent: est. 49000; read off a plot

response [4] | Molecule | further results
 | purified SALM3 Thr354Arg-Glu359Ala mutant protein (domain or fragment) | stoichiometry N [1]: 2
 | purified SALM3 Leu282Arg-Arg285Ala mutant protein (domain or fragment) | stoichiometry N [2]: 2
 | Mouse SALM3 LRR (residues 17–284) (domain or fragment, UniProt Q80XU8 17-284, looked up, N-glycan at Asn25 (partly visible in one monomer), SALM3 (LRFN4), mouse, LRR domain, residues 17-284; residues of the Prescission site may remain at the C-terminus after cleavage; also called SALM3 LRR domain; SALM3 LRR construct; not shown: Fc, C-terminal, cleaved) CPLPCVCQNLSESLSTLCAHRGLLFVPPNVDRRTVELRLADNFIQALGPPDFRNMTGLVDLTLSRNAITRIGARSFGDLESLRSLHLDGNRLVELGSSSLRGPVNLQHLILSGNQLGRIAPGAFDDFLDSLEDLDVSYNNLRQVPWAGIGSMPALHTLNLDHNLIDALPPGVFAQLSQLSRLDLTSNRLATLAPDPLFSRGRDAEASPSPLVLSFSGNPLHCNCELLWLRRLARPDDLETCASPPTLAGRYFWAVPEGEFSCEPPLIA | stoichiometry N [3]: 2
2500 | mouse SALM3 LRR-Ig-Fn (residues 17–510), wild type, displayed on HEK293T cells, Q80XU8 L282R; R285A (protein) CPLPCVCQNLSESLSTLCAHRGLLFVPPNVDRRTVELRLADNFIQALGPPDFRNMTGLVDLTLSRNAITRIGARSFGDLESLRSLHLDGNRLVELGSSSLRGPVNLQHLILSGNQLGRIAPGAFDDFLDSLEDLDVSYNNLRQVPWAGIGSMPALHTLNLDHNLIDALPPGVFAQLSQLSRLDLTSNRLATLAPDPLFSRGRDAEASPSPLVLSFSGNPLHCNCELLWLRRLARPDDLETCASPPTLAGRYFWAVPEGEFSCEPPRIAAHTQRLWVLEGQRATLRCRALGDPVPTMHWVGPDDRLVGNSSRAWAFPNGTLEIGVTGAGDAGAYTCIATNPAGEATARVELRVLALPHGGNTSAEGGRPGPSDIAASARTAAEGEGTLESEPAVQVTEVTATSGLVSWGLGRPADPVWMFQIQYNSSEDETLIYRIVPASSHHFLLKHLVPGADYDLCLLALSPAAGPSDLTATRLLGCAHFSTLPATPLCHALQ | 
2500 | mouse SALM3 LRR-Ig-Fn (residues 17–510), wild type, displayed on HEK293T cells, Q80XU8 R247A (protein) CPLPCVCQNLSESLSTLCAHRGLLFVPPNVDRRTVELRLADNFIQALGPPDFRNMTGLVDLTLSRNAITRIGARSFGDLESLRSLHLDGNRLVELGSSSLRGPVNLQHLILSGNQLGRIAPGAFDDFLDSLEDLDVSYNNLRQVPWAGIGSMPALHTLNLDHNLIDALPPGVFAQLSQLSRLDLTSNRLATLAPDPLFSRGRDAEASPSPLVLSFSGNPLHCNCELLWLRALARPDDLETCASPPTLAGRYFWAVPEGEFSCEPPLIARHTQRLWVLEGQRATLRCRALGDPVPTMHWVGPDDRLVGNSSRAWAFPNGTLEIGVTGAGDAGAYTCIATNPAGEATARVELRVLALPHGGNTSAEGGRPGPSDIAASARTAAEGEGTLESEPAVQVTEVTATSGLVSWGLGRPADPVWMFQIQYNSSEDETLIYRIVPASSHHFLLKHLVPGADYDLCLLALSPAAGPSDLTATRLLGCAHFSTLPATPLCHALQ | 
2800 | mouse SALM3 LRR-Ig-Fn (residues 17–510), wild type, displayed on HEK293T cells, Q80XU8 L321A; H313A (protein) CPLPCVCQNLSESLSTLCAHRGLLFVPPNVDRRTVELRLADNFIQALGPPDFRNMTGLVDLTLSRNAITRIGARSFGDLESLRSLHLDGNRLVELGSSSLRGPVNLQHLILSGNQLGRIAPGAFDDFLDSLEDLDVSYNNLRQVPWAGIGSMPALHTLNLDHNLIDALPPGVFAQLSQLSRLDLTSNRLATLAPDPLFSRGRDAEASPSPLVLSFSGNPLHCNCELLWLRRLARPDDLETCASPPTLAGRYFWAVPEGEFSCEPPLIARHTQRLWVLEGQRATLRCRALGDPVPTMAWVGPDDRAVGNSSRAWAFPNGTLEIGVTGAGDAGAYTCIATNPAGEATARVELRVLALPHGGNTSAEGGRPGPSDIAASARTAAEGEGTLESEPAVQVTEVTATSGLVSWGLGRPADPVWMFQIQYNSSEDETLIYRIVPASSHHFLLKHLVPGADYDLCLLALSPAAGPSDLTATRLLGCAHFSTLPATPLCHALQ | 
4000 | mouse SALM3 LRR-Ig-Fn (residues 17–510), wild type, displayed on HEK293T cells, Q80XU8 R285A; L305A (protein) CPLPCVCQNLSESLSTLCAHRGLLFVPPNVDRRTVELRLADNFIQALGPPDFRNMTGLVDLTLSRNAITRIGARSFGDLESLRSLHLDGNRLVELGSSSLRGPVNLQHLILSGNQLGRIAPGAFDDFLDSLEDLDVSYNNLRQVPWAGIGSMPALHTLNLDHNLIDALPPGVFAQLSQLSRLDLTSNRLATLAPDPLFSRGRDAEASPSPLVLSFSGNPLHCNCELLWLRRLARPDDLETCASPPTLAGRYFWAVPEGEFSCEPPLIAAHTQRLWVLEGQRATLRCRAAGDPVPTMHWVGPDDRLVGNSSRAWAFPNGTLEIGVTGAGDAGAYTCIATNPAGEATARVELRVLALPHGGNTSAEGGRPGPSDIAASARTAAEGEGTLESEPAVQVTEVTATSGLVSWGLGRPADPVWMFQIQYNSSEDETLIYRIVPASSHHFLLKHLVPGADYDLCLLALSPAAGPSDLTATRLLGCAHFSTLPATPLCHALQ | 
2800 | mouse SALM3 LRR-Ig-Fn (residues 17–510), wild type, displayed on HEK293T cells, Q80XU8 R107S; Q131A (protein) CPLPCVCQNLSESLSTLCAHRGLLFVPPNVDRRTVELRLADNFIQALGPPDFRNMTGLVDLTLSRNAITRIGARSFGDLESLRSLHLDGNSLVELGSSSLRGPVNLQHLILSGNALGRIAPGAFDDFLDSLEDLDVSYNNLRQVPWAGIGSMPALHTLNLDHNLIDALPPGVFAQLSQLSRLDLTSNRLATLAPDPLFSRGRDAEASPSPLVLSFSGNPLHCNCELLWLRRLARPDDLETCASPPTLAGRYFWAVPEGEFSCEPPLIARHTQRLWVLEGQRATLRCRALGDPVPTMHWVGPDDRLVGNSSRAWAFPNGTLEIGVTGAGDAGAYTCIATNPAGEATARVELRVLALPHGGNTSAEGGRPGPSDIAASARTAAEGEGTLESEPAVQVTEVTATSGLVSWGLGRPADPVWMFQIQYNSSEDETLIYRIVPASSHHFLLKHLVPGADYDLCLLALSPAAGPSDLTATRLLGCAHFSTLPATPLCHALQ | 
 | SALM3 LRR-Ig (residues 17–367) (domain or fragment, mouse, UniProt Q80XU8 17-367, looked up, SALM3 (LRFN4), mouse, LRR and Ig domains, residues 17-367; also called SALM3 LRR-Ig construct; source: purified) CPLPCVCQNLSESLSTLCAHRGLLFVPPNVDRRTVELRLADNFIQALGPPDFRNMTGLVDLTLSRNAITRIGARSFGDLESLRSLHLDGNRLVELGSSSLRGPVNLQHLILSGNQLGRIAPGAFDDFLDSLEDLDVSYNNLRQVPWAGIGSMPALHTLNLDHNLIDALPPGVFAQLSQLSRLDLTSNRLATLAPDPLFSRGRDAEASPSPLVLSFSGNPLHCNCELLWLRRLARPDDLETCASPPTLAGRYFWAVPEGEFSCEPPLIARHTQRLWVLEGQRATLRCRALGDPVPTMHWVGPDDRLVGNSSRAWAFPNGTLEIGVTGAGDAGAYTCIATNPAGEATARVELR | stoichiometry N [3]: 2
